For data set [1], the target named is Thermus thermophilus RecR (ttRecR), wild type (Thermus thermophilus). Nature of the data set: SEC. For orientation: In gel filtration, larger molecules generally elute earlier.
Data set [2] shares this target. Nature of the data set: SAXS.
Data set [3] shares this target. The data set is described as follows: SAXS. This is another data set of the same source.
The target of data set [4] is Thermus thermophilus RecF (ttRecF) (Thermus thermophilus). Nature of the data set: SAXS.
Data set [5] deals with T1, ttRecF (Thermus thermophilus, UniProt Q5SLM9 1-343).
T1 sequence: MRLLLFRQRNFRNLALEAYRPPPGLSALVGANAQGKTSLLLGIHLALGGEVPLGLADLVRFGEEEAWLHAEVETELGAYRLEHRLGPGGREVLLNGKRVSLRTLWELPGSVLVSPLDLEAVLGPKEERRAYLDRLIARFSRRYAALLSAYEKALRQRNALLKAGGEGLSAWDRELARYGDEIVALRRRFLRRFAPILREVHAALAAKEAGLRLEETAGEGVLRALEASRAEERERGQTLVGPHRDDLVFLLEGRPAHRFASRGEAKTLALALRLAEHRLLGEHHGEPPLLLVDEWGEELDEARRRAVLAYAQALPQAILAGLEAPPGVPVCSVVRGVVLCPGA
Nature of the data set: EMSA. In general terms: A gel shift assay detects complexes by their altered migration in electrophoresis.

Data set [6] has as its target T2, ttRecF;ttRecR (Thermus thermophilus;Thermus …, UniProt Q5SLM9;Q5SHY0 1-343;1-194, |).
T2 sequence 1: T1 sequence
T2 sequence 2: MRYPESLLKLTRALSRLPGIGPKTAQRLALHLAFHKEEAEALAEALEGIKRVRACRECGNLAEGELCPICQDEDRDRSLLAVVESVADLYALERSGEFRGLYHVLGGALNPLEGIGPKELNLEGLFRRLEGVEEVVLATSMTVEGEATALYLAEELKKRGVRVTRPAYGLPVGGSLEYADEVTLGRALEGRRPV
Nature of the data set: EMSA.

Data set [7] has as its target T3, ttRecR (Thermus thermophilus, UniProt Q5SHY0 1-194).
T3 sequence: T2 sequence 2
The data set is described as follows: EMSA.

“Thermus thermophilus RecR (ttRecR), wild type (natural protein)”: the figures for the stoichiometry N in data set [1], in data set [2] and in data set [3] were 2, 4 and 2, respectively. In addition, the N, ttRecF chains in the complex in data set [4] was 2. Also, the N, ttRecR chains in the complex in data set [4] was 4.

B1: 70 bp dsDNA (dsDNA)
DNA 1: GCGATCCTTATTAAAACGGCAACTCCTCCTCCGGCGGAAAGTCTTCCAAGCCTTCGTCAATGTCCACCCC
DNA 2: GGGGTGGACATTGACGAAGGCTTGGAAGACTTTCCGCCGGAGGAGGAGTTGCCGTTTTAATAAGGATCGC
As to B1, the binding result was “binds” in data set [5], “binds” in data set [6] and “no binding” in data set [7].

(Values after paper PMC2528183.)
